Measurements as given in the RNAGym collection of RNA variant scans (doi:10.1093/molbev/msab373).

B1: Azoarcus group I ribozyme (parent)
chain: GUGCCUUGCGCCGGGAAACCACGCAAGGGAUGGUGUCAAAUUCGGCGAAACCUAAGCGCCCGCCCGGGCGUAUGGCAACGCCGAGCCAAGCUUCGGCGCCUGCGCCGAUGAAGGUGUAGAGACUAGACGGCACCCACCUAAGGCAAACGCUAUGGUGAAGGCAUAGUCCAGGGAGUGGCGAAAGUCACACAAACCGG

Variants of: B1
Test: reverse-splicing fitness (ratio to wild type); higher = more active; in vitro selection; Mg2+ level not given
Outline: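 An in vitro group I ribozyme library with randomized positions was T7-transcribed and gel-purified. In triplicate, 10 pmol RNA in EPPS pH 7.5 was reacted with 50 pmoles of a 30-nt RNA substrate for 1 h at 37 °C across several added MgCl2 levels (1–48 mM), then stopped with EDTA. Products were reverse transcribed from a substrate-complementary primer, PCR-amplified and sequenced (HiSeq 4000). Fitness is a variant's read proportion after selection over that before, normalised to wild type.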

| Variant | reverse-splicing fitness |
| --- | --- |
| GUGCCUUGCGCCGGGAAACCACGCAAGGGAUGGUGUCAAAUUCGGCGAAACCUAAGCGCCCGCCCGGGCGUAUGGCAACGCGGAGCCAAGCUUCGGCGCCUGCGCCGAUGUAGGUGUAGUGACUAGACGGCACCCACCUAAGGCGAACGAUAUGGUGAAGGCAUAGUCCAGGGAGGGGCGAAAGUCACACAAACCGG | 0.00383 |
| GUGCCUUGCGCCGGGAAACCACGCAAGGGAUGGUGUCAAAUUCGGCGAAACCUAAGCGCCCGCCCGGGCGUAUGGCAACGCGGAGCCAAGCUUCGGCGCCUGCGCCGAUGUAGGUGUAGUGACUAGACGGCACCCACCUAAGGCGAACGAUAUGGUGAAGGCAUAGUCGAGGGAGGGGCGAAAGUCACACAAACCGG | 0.00257 |
| GUGCCUUGCGCCGGGAAACCACGCAAGGGAUGGUGUCAAAUUCGGCGAAACCUAAGCGCCCGCCCGGGCGUAUGGCAACGCGGAGCCAAGCUUCGGCGCCUGCGCCGAUGUAGGUGUAGUGACUAGACGGCACCCACCUAAGGCGAACGAUAUGGUGAAGGCAUAGUCGAGGGAGCGGCGAAAGUCACACAAACCGG | 0.00577 |
| GUGCCUUGCGCCGGGAAACCACGCAAGGGAUGGUGUCAAAUUCGGCGAAACCUAAGCGCCCGCCCGGGCGUAUGGCAACGCGGAGCCAAGCUUCGGCGCCUGCGCCGAUGUAGGUGUAGUGACUAGACGGCACCCACCUAAGGCGAACGAUAUGGUGAAGGCAUAGUCGAGGGAGAGGCGAAAGUCACACAAACCGG | 0.00878 |
| GUGCCUUGCGCCGGGAAACCACGCAAGGGAUGGUGUCAAAUUCGGCGAAACCUAAGCGCCCGCCCGGGCGUAUGGCAACGCGGAGCCAAGCUUCGGCGCCUGCGCCGAUGUAGGUGUAGUGACUAGACGGCACCCACCUAAGGCGAACGCUAUGGUGAAGGCAUAGUCCAGGGAGUGGCGAAAGUCACACAAACCGG | 0.043 |
| GUGCCUUGCGCCGGGAAACCACGCAAGGGAUGGUGUCAAAUUCGGCGAAACCUAAGCGCCCGCCCGGGCGUAUGGCAACGCGGAGCCAAGCUUCGGCGCCUGCGCCGAUGUAGGUGUAGUGACUAGACGGCACCCACCUAAGGCCAACGCUAUGGUGAAGGCAUAGUCUAGGGAGAGGCGAAAGUCACACAAACCGG | 0.00287 |
| GUGCCUUGCGCCGGGAAACCACGCAAGGGAUGGUGUCAAAUUCGGCGAAACCUAAGCGCCCGCCCGGGCGUAUGGCAACGCGGAGCCAAGCUUCGGCGCCUGCGCCGAUGUAGGUGUAGUGACUAGACGGCACCCACCUAAGGCCAACGCUAUGGUGAAGGCAUAGUCUAGGGAGCGGCGAAAGUCACACAAACCGG | 0.00238 |
| GUGCCUUGCGCCGGGAAACCACGCAAGGGAUGGUGUCAAAUUCGGCGAAACCUAAGCGCCCGCCCGGGCGUAUGGCAACGCGGAGCCAAGCUUCGGCGCCUGCGCCGAUGUAGGUGUAGUGACUAGACGGCACCCACCUAAGGCCAACGCUAUGGUGAAGGCAUAGUCUAGGGAGGGGCGAAAGUCACACAAACCGG | 0.00178 |
| GUGCCUUGCGCCGGGAAACCACGCAAGGGAUGGUGUCAAAUUCGGCGAAACCUAAGCGCCCGCCCGGGCGUAUGGCAACGCGGAGCCAAGCUUCGGCGCCUGCGCCGAUGUAGGUGUAGUGACUAGACGGCACCCACCUAAGGCGAACGGUAUGGUGAAGGCAUAGUCGAGGGAGAGGCGAAAGUCACACAAACCGG | 0.00963 |
| GUGCCUUGCGCCGGGAAACCACGCAAGGGAUGGUGUCAAAUUCGGCGAAACCUAAGCGCCCGCCCGGGCGUAUGGCAACGCGGAGCCAAGCUUCGGCGCCUGCGCCGAUGUAGGUGUAGUGACUAGACGGCACCCACCUAAGGCGAACGAUAUGGUGAAGGCAUAGUCAAGGGAGUGGCGAAAGUCACACAAACCGG | 0.00617 |
| GUGCCUUGCGCCGGGAAACCACGCAAGGGAUGGUGUCAAAUUCGGCGAAACCUAAGCGCCCGCCCGGGCGUAUGGCAACGCGGAGCCAAGCUUCGGCGCCUGCGCCGAUGUAGGUGUAGUGACUAGACGGCACCCACCUAAGGCGAACGAUAUGGUGAAGGCAUAGUCGAGGGAGUGGCGAAAGUCACACAAACCGG | 0.00555 |
| GUGCCUUGCGCCGGGAAACCACGCAAGGGAUGGUGUCAAAUUCGGCGAAACCUAAGCGCCCGCCCGGGCGUAUGGCAACGCGGAGCCAAGCUUCGGCGCCUGCGCCGAUGUAGGUGUAGUGACUAGACGGCACCCACCUAAGGCGAACGAUAUGGUGAAGGCAUAGUCUAGGGAGUGGCGAAAGUCACACAAACCGG | 0.00464 |
| GUGCCUUGCGCCGGGAAACCACGCAAGGGAUGGUGUCAAAUUCGGCGAAACCUAAGCGCCCGCCCGGGCGUAUGGCAACGCGGAGCCAAGCUUCGGCGCCUGCGCCGAUGUAGGUGUAGUGACUAGACGGCACCCACCUAAGGCGAACGGUAUGGUGAAGGCAUAGUCAAGGGAGGGGCGAAAGUCACACAAACCGG | 0.00502 |
| GUGCCUUGCGCCGGGAAACCACGCAAGGGAUGGUGUCAAAUUCGGCGAAACCUAAGCGCCCGCCCGGGCGUAUGGCAACGCGGAGCCAAGCUUCGGCGCCUGCGCCGAUGUAGGUGUAGUGACUAGACGGCACCCACCUAAGGCGAACGGUAUGGUGAAGGCAUAGUCAAGGGAGCGGCGAAAGUCACACAAACCGG | 0.0086 |
| GUGCCUUGCGCCGGGAAACCACGCAAGGGAUGGUGUCAAAUUCGGCGAAACCUAAGCGCCCGCCCGGGCGUAUGGCAACGCGGAGCCAAGCUUCGGCGCCUGCGCCGAUGUAGGUGUAGUGACUAGACGGCACCCACCUAAGGCGAACGGUAUGGUGAAGGCAUAGUCAAGGGAGAGGCGAAAGUCACACAAACCGG | 0.0114 |
